Test results from the supplement of paper PMC12764529.
± gives the half width of the 95% confidence interval.

Assay: folding stability dG unfold from trypsin proteolysis; higher = more stable
Summary of the method: (§1)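 Unfolding free energy was derived, per protease or combined, by relating Bayesian-fitted K50 values from sequencing counts to a sequence-predicted unfolded-state K50 and a shared folded-state K50. The underlying digests exposed cysteine-free mini-proteins under 80 residues, in a PA-tagged cDNA display construct, to trypsin and chymotrypsin at 11 threefold-diluted concentrations and to a no-protease condition. A filter kept only designs with AlphaFold2 dimer inter-PAE above 15.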

Point of comparison: “SAGGSAGGSPKIKEVKYIPPTGKIEVLIELPNGKPIKVTFDPKIKVNPVFYNGKPIFYFTGNPSAGGSAGGS [r12_789_TrMRF]”, “folding stability dG unfold” value 0.925 ± 0.015 kcal/mol. Against it:
- SAGMKVIKVKGEEELEKALREEAEKKGLSEEEMKEFIEEAKKRTKIEKEGDEYYVTIEPEGKPVPGNKLSAG [r5_717_JUSTAS] — higher, 1.04 ± 0.088 kcal/mol
- SAGGMKIEGMTPEEVEALAKALAEAGYEVVSVTVTYDPETDTVTVTVVVRDKKTGEIKKVVTVTLPPSAGGS [r16_750_TrROS_Hall] — higher, 3.33 ± 0.1 kcal/mol
- SAGGSDTLKKLFPGVKEIEIEVEPYWVPMPPEMAKDNPEAPGQTFPVPRVKITIKIELPRDPDGKLSAGGSA [r2_404_TrROS] — higher, 1.09 ± 0.065 kcal/mol
- MTIEITIVAKTEEEAKEAAEELARKLAEELGLSEEELENLKIEVEKVEVTNEDGEKYYVVKIKIELPPEFKS [r1_81_TrROS_Hall] — higher, 2.93 ± 0.38 kcal/mol
- SAGGPGWRTINIPVWFKPGDSLDEIEEKARELVDPIADRNGLDIEVNIEVERDPDGYYRFNVQITVPSAGGS [r16_279_TrROS] — higher, 1.27 ± 0.097 kcal/mol
- SAGGSAGGSKKKVKVVKVEKLEDGSVRVLLYNEDGELVLEIEFPPGMTEEEVEELVKKLLEELSAGGSAGGS [r12_798_TrROS_Hall] — higher, 2.47 ± 0.1 kcal/mol
- SAGGSAGGSAGGKVGPGTTVTIVEVEVVGSKINPLGLVTTDFVVKKVEVVEVEKGADLKSAGGSAGGSAGGS [r10_826_JUSTAS] — lower, 0.487 ± 0.041 kcal/mol
- SAGEMVVLRIRVKVPVTEVKFDKETGELTVEKKTVTREITLTVPADSPEARELAEKLRELGFEVEVVEASAG [r5_468_TrROS_Hall] — higher, 3.35 ± 0.14 kcal/mol
- SAGGSAGGSGITIPAGSPEKVYELLSALEKLGFKPKKVSVSGNYVIVDFENGIPVNIEINPGKSAGGSAGGS [r20_93_TrMRF] — higher, 1.06 ± 0.059 kcal/mol
- SAGGSAGGSAGGMFKTYDSLEDVKKNETGDGAKGKVFVVAPIPELENAVLVLVEIRPPDSAGGSAGGSAGGS [r10_126_TrMRF] — lower, -0.219 ± 0.069 kcal/mol
- SAGGSAGGSAETVTITLKVKPGEKVKIVNKKTKKVFEATVKDGYLTITLPKEDITEIKIEKVSAGGSAGGSA [r18_170_TrROS_Hall] — higher, 1.77 ± 0.05 kcal/mol
- SAGGSALEVKPGAGNTLTVYTPLPEDIPISEVIEELKKKYPNITAETDETSDGVAVVTLTLPPGLGSAGGSA [r15_1047_JUSTAS] — within error, 0.984 ± 0.051 kcal/mol
- SAGGMVLKPVKLNGNENLKTTADGAEVEYTSDGKGNVTITVRYEPNLTVEALVNGSTVTLVKTEEGYLSAGG [r13_92_JUSTAS] — within error, 0.843 ± 0.09 kcal/mol
- SAGGSAGGSAGGKKVIKVKVRIYPVDGSFEEKEVEAESLEELLEKVLEETHPESLIFIGSAGGSAGGSAGGS [r10_145_TrMRF] — within error, 0.912 ± 0.086 kcal/mol
- SEWVSFMFPFKFEPDDGKIRIKIKMKAPDGEPLGEHEHPVRRDGDKVEVMQMITFPLPKGAQLDKIEIEPSA [r9_292_TrROS] — within error, 0.778 ± 0.26 kcal/mol
- SAGGSAGGSAGGSRTIYEPVPPDVAGTRLITFTSPDSEPLSTRTVSVTPVPGGRGAVILGSAGGSAGGSAGG [r7_64_JUSTAS] — lower, -0.735 ± 0.44 kcal/mol
- SAGGSAGGSKGPVVILIFRPKYNPVKGIELEVEEVIVVSPEELSLSALGPALEEKEGYALILPSAGGSAGGS [r20_75_TrMRF] — higher, 1.26 ± 0.015 kcal/mol
- SAGSVTSVEVKEKGEVTVTTETLNIDGKPYTVVSTTTPLLDPEGNVTYTTTTTVYDPNGNKISTTPTSLSAG [r14_465_JUSTAS] — higher, 1.33 ± 0.033 kcal/mol
- SAGMVVLTEPGNGRLVVSELPEELAEEIARELGLPDITPVPPGVPAEEARAAHPALTAALEIPPEVLLSAGG [r19_270_JUSTAS] — lower, -0.149 ± 0.16 kcal/mol
- SAGGSAGGSAMITYTAPGGTPVTVTPDPVTGTLSATFPDGSVITAPVVGDTIPVTVVPPAAVSAGGSAGGSA [r18_405_JUSTAS] — higher, 1.37 ± 0.023 kcal/mol
- SAGGSAGGSKKEEFYKITVYSPNKKAEEIAKKIQEETGTEIVEVKAEKFKDGGIKVIALVKKTSAGGSAGGS [r12_359_TrMRF] — lower, -0.213 ± 0.19 kcal/mol
- SAGGSAGGSMTIPILFPIPPGQPPGMEITFRFPGYKIEIEILEVDPENGWIAFMIELTDPGDDSAGGSAGGS [r12_1039_TrROS] — higher, 3.13 ± 0.093 kcal/mol
- KIHILPPGEPAKDPNGKTYEFPNMRIHRNPKNGKPTIYIPMDPEARDQGNPEALQWLRELVEELNIDKVEPS [r1_438_TrROS] — lower, -0.623 ± 0.45 kcal/mol
- SAGGSAGGSPDNWITFIFISISYKWKITKWDPENGGWKIEIKDVSIEIEIIRLPADDADKLFKSAGGSAGGS [r12_723_TrROS] — higher, 2.63 ± 0.079 kcal/mol
- SAGGTAEEIAETIAEKFSKKNNNPNVRITVEKEPDSLRIDITFPNNGHEIEIEFEDGGIRKIEWEPYSAGGS [r16_397_TrROS] — lower, 0.276 ± 0.27 kcal/mol
- SAGGSAGGSMYYVVVTRPGGRPEVIVVPTETLEEVEEVAARIAEALRELGIPEEELEIRVLPVSAGGSAGGS [r12_295_TrMRF] — higher, 2.4 ± 0.046 kcal/mol
- SAGGSVSDIVNELKKKGIKVTSIEKTEDGTYVITTELPNGVKKEYKYSTSDPKNVAALKAAIPEELVSAGGS [r16_821_JUSTAS] — higher, 1.44 ± 0.038 kcal/mol
- SAGGDWRPVEFTIKILIPKGMTADELIEEIKEIARNLGLTIKPISVEVYPVPNKYYVEINVEIWIPPNSAGG [r13_351_TrROS] — higher, 2.57 ± 0.14 kcal/mol
- SAGGMKVYKTPDKITIELTHPETGEKAKGTYTPSTGKMTITYPNKLTVTISVDSNGNLTPVEKKPLLSAGGS [r16_127_JUSTAS] — lower, 0.592 ± 0.046 kcal/mol
- SAGKRTIMIPFNVKPNQIRNIAKDIVEMHPGWKIKSIKVFNPNNGEPQELPLGDVPPNEPVWIKVEIEPSAG [r5_357_TrROS] — higher, 2.36 ± 0.1 kcal/mol
- SAGGMITEEEILELEKRIREAAEAGDPETVEEELERAKEALEEYKKKGNKELLKKVEEIVKRAEELIASAGG [r13_137_JUSTAS] — higher, 3.8 ± 0.2 kcal/mol
- SAGMNKIYRLNEPVKNITFSSSELENLFKDPNIDRIAVFHPDKPAIIPFPDGKISGEFPPNITIVLFGSAGG [r19_152_TrMRF] — lower, 0.661 ± 0.15 kcal/mol
- SAGGSAGGSAMIGGGEDGNLVFLVTEDGKPLVLVAPPDEIKKILEELGIKDVVVVKPLPELSAGGSAGGSAG [r3_141_TrMRF] — higher, 1.18 ± 0.043 kcal/mol
- SAGGSAGGSFVDPDGYKVIEFPIPMDDPGRIKEEVMDQFNLKDVKVEWEPTPGWYWVSIIVEPSAGGSAGGS [r12_929_TrROS] — lower, 0.74 ± 0.093 kcal/mol
- SAGGSAGGSAGGSSGTSVSTEVSSSPVVTKTEYTKLDDGWSTTTTVVSTLPNALAPELTTSAGGSAGGSAGG [r7_845_JUSTAS] — higher, 1.06 ± 0.082 kcal/mol
- SAGGSAGGSAGGKKTVKIEIEMPVEELLKKLKFPEGITSVRIIERDENGYLRIEIEVKLSAGGSAGGSAGGS [r10_352_TrROS_Hall] — higher, 1.55 ± 0.05 kcal/mol
- SAGGSAMPEVKVEVEIIERDPENEDYVLVRIKVEVRFKTEDGEEVEVREERELLVFPSEEELKKALSAGGSA [r15_1019_TrROS_Hall] — higher, 2.02 ± 0.064 kcal/mol
- SAGGDIKILSIQFMPPGWIMIVAEIPLENGEKWHISIMIRITPEARNHPPGQEYEFRIDINISIVPRSAGGS [r16_787_TrROS] — higher, 3.5 ± 0.26 kcal/mol
- SAGGSAGGSETVTLELTLEDGRTLRIEFDPETQRLTVTFPDGSKQEIEVETLDDALAALLEALSAGGSAGGS [r12_866_TrROS_Hall] — higher, 2.91 ± 0.11 kcal/mol
- SAGGSAERVLIEAESLEEAKAALEELGVTRVEEREVDGKRYLILVDLDDPEKIEVFSREELEKLLKSAGGSA [r15_11_TrROS_Hall] — within error, 0.935 ± 0.034 kcal/mol
- SAMKLTVSSSSPEEAQAQAEALKAQLRAELAAAGHPGAEVPVEITVTAVPPPVPVDVADPTSDRWSPTPSAG [r14_475_JUSTAS] — lower, 0.804 ± 0.033 kcal/mol

Assay: folding stability dG unfold from chymotrypsin proteolysis; higher = more stable
Summary of the method: as §1

Point of comparison: “SAGGPGWRTINIPVWFKPGDSLDEIEEKARELVDPIADRNGLDIEVNIEVERDPDGYYRFNVQITVPSAGGS [r16_279_TrROS]”, “folding stability dG unfold” value 2.34 ± 0.071 kcal/mol. Against it:
- SAGMKVIKVKGEEELEKALREEAEKKGLSEEEMKEFIEEAKKRTKIEKEGDEYYVTIEPEGKPVPGNKLSAG [r5_717_JUSTAS] — lower, -0.879 ± 0.52 kcal/mol
- SAGGMKIEGMTPEEVEALAKALAEAGYEVVSVTVTYDPETDTVTVTVVVRDKKTGEIKKVVTVTLPPSAGGS [r16_750_TrROS_Hall] — higher, 2.69 ± 0.069 kcal/mol
- SAGGSDTLKKLFPGVKEIEIEVEPYWVPMPPEMAKDNPEAPGQTFPVPRVKITIKIELPRDPDGKLSAGGSA [r2_404_TrROS] — lower, 0.324 ± 0.18 kcal/mol
- MTIEITIVAKTEEEAKEAAEELARKLAEELGLSEEELENLKIEVEKVEVTNEDGEKYYVVKIKIELPPEFKS [r1_81_TrROS_Hall] — higher, 3.61 ± 0.25 kcal/mol
- SAGGSAGGSKKKVKVVKVEKLEDGSVRVLLYNEDGELVLEIEFPPGMTEEEVEELVKKLLEELSAGGSAGGS [r12_798_TrROS_Hall] — higher, 2.72 ± 0.13 kcal/mol
- SAGGSAGGSAGGKVGPGTTVTIVEVEVVGSKINPLGLVTTDFVVKKVEVVEVEKGADLKSAGGSAGGSAGGS [r10_826_JUSTAS] — lower, -0.775 ± 0.41 kcal/mol
- SAGEMVVLRIRVKVPVTEVKFDKETGELTVEKKTVTREITLTVPADSPEARELAEKLRELGFEVEVVEASAG [r5_468_TrROS_Hall] — higher, 3.53 ± 0.042 kcal/mol
- SAGGSAGGSGITIPAGSPEKVYELLSALEKLGFKPKKVSVSGNYVIVDFENGIPVNIEINPGKSAGGSAGGS [r20_93_TrMRF] — higher, 2.85 ± 0.039 kcal/mol
- SAGGSAGGSAGGMFKTYDSLEDVKKNETGDGAKGKVFVVAPIPELENAVLVLVEIRPPDSAGGSAGGSAGGS [r10_126_TrMRF] — lower, 0.504 ± 0.11 kcal/mol
- SAGGSAGGSAETVTITLKVKPGEKVKIVNKKTKKVFEATVKDGYLTITLPKEDITEIKIEKVSAGGSAGGSA [r18_170_TrROS_Hall] — higher, 2.47 ± 0.019 kcal/mol
- SAGGSALEVKPGAGNTLTVYTPLPEDIPISEVIEELKKKYPNITAETDETSDGVAVVTLTLPPGLGSAGGSA [r15_1047_JUSTAS] — lower, 0.401 ± 0.25 kcal/mol
- SAGGMVLKPVKLNGNENLKTTADGAEVEYTSDGKGNVTITVRYEPNLTVEALVNGSTVTLVKTEEGYLSAGG [r13_92_JUSTAS] — lower, 0.937 ± 0.11 kcal/mol
- SAGGSAGGSAGGKKVIKVKVRIYPVDGSFEEKEVEAESLEELLEKVLEETHPESLIFIGSAGGSAGGSAGGS [r10_145_TrMRF] — lower, 0.14 ± 0.067 kcal/mol
- SEWVSFMFPFKFEPDDGKIRIKIKMKAPDGEPLGEHEHPVRRDGDKVEVMQMITFPLPKGAQLDKIEIEPSA [r9_292_TrROS] — lower, 1.11 ± 0.34 kcal/mol
- SAGGSAGGSAGGSRTIYEPVPPDVAGTRLITFTSPDSEPLSTRTVSVTPVPGGRGAVILGSAGGSAGGSAGG [r7_64_JUSTAS] — lower, -0.918 ± 0.73 kcal/mol
- SAGGSAGGSKGPVVILIFRPKYNPVKGIELEVEEVIVVSPEELSLSALGPALEEKEGYALILPSAGGSAGGS [r20_75_TrMRF] — lower, 1.32 ± 0.068 kcal/mol
- SAGSVTSVEVKEKGEVTVTTETLNIDGKPYTVVSTTTPLLDPEGNVTYTTTTTVYDPNGNKISTTPTSLSAG [r14_465_JUSTAS] — lower, 2.14 ± 0.032 kcal/mol
- SAGMVVLTEPGNGRLVVSELPEELAEEIARELGLPDITPVPPGVPAEEARAAHPALTAALEIPPEVLLSAGG [r19_270_JUSTAS] — lower, 0.0886 ± 0.032 kcal/mol
- SAGGSAGGSAMITYTAPGGTPVTVTPDPVTGTLSATFPDGSVITAPVVGDTIPVTVVPPAAVSAGGSAGGSA [r18_405_JUSTAS] — lower, -0.295 ± 0.11 kcal/mol
- SAGGSAGGSKKEEFYKITVYSPNKKAEEIAKKIQEETGTEIVEVKAEKFKDGGIKVIALVKKTSAGGSAGGS [r12_359_TrMRF] — lower, -0.558 ± 0.67 kcal/mol
